Consider one protein from patent US20230203197.

The data set concerns the target alpha 1 antitrypsin (α1AT), P01009.

alpha 1 antitrypsin (α1AT), P01009, sequence (P01009 whole entry, looked up): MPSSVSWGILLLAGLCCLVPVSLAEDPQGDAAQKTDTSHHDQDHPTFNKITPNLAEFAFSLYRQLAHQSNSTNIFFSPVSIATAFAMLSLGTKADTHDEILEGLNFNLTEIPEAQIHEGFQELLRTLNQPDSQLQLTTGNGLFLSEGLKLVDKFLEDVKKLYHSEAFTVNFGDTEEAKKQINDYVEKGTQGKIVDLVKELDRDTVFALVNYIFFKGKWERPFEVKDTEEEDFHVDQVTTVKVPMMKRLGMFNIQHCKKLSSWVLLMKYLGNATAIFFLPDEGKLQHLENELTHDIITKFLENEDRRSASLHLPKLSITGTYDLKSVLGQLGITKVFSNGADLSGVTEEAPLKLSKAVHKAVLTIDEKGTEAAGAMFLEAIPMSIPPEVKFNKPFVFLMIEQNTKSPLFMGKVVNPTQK

B1: neutrophil proteinase 3 (PR3), purified native human PR3 (protein)
chain: IVGGHEAQPHSRPYMASLQMRGNPGSHFCGGTLIHPSFVLTAAHCLRDIPQRLVNVVLGAHNVRTQEPTQQHFSVAQVFLNNYDAENKLNDVLLIQLSSPANLSASVATVQLPQQDQPVPHGTQCLAMGWGRVGAHDPPAQVLQELNVTVVTFFCRPHNICTFVPRRKAGICFGDSGGPLICDGIIQGIDSFVIWGCATRLFPDFFTRVALYVDWIRSTLR
B1: the “enzymatic activity of PR3 (fluorescent substrate Abz-VADnVADYQ-YNO2)” value was “the addition of alpha 1 anti-trypsin (1AT) which is a natural PR3 inhibitor did not induce any degradation of the PR3 substrate”.
